Results as given in patent publication US9211312 (VOLUTION IMMUNO PHARMACEUTICALS, dated 2015).

Tests used:
[1] = target: rat complement C5 (in rat serum) (rat, UniProt P08650 19-1681); experiment: cell-based or functional assay
[2] = target: human complement C5 (in human serum) (human, UniProt P01031 19-1676); experiment: cell-based or functional assay
[3] = target: mouse complement C5 (in mouse serum) (mouse, UniProt P06684 19-1680); experiment: cell-based or functional assay
complement C5 = target: T1, complement C5 (Homo sapiens (Human), UniProt P01031 19-673; P01031 678-1676, The beta and alpha chains of native C5 are linked by a disulfide bond. The native protein is glycosylated.); experiment: direct binding to C5 (FIG. 4C); method not described
T1 construct: also called complement protein C5
T1 sequence (P01031 19-673 limits assumed, form in doubt, chain 1 of 2): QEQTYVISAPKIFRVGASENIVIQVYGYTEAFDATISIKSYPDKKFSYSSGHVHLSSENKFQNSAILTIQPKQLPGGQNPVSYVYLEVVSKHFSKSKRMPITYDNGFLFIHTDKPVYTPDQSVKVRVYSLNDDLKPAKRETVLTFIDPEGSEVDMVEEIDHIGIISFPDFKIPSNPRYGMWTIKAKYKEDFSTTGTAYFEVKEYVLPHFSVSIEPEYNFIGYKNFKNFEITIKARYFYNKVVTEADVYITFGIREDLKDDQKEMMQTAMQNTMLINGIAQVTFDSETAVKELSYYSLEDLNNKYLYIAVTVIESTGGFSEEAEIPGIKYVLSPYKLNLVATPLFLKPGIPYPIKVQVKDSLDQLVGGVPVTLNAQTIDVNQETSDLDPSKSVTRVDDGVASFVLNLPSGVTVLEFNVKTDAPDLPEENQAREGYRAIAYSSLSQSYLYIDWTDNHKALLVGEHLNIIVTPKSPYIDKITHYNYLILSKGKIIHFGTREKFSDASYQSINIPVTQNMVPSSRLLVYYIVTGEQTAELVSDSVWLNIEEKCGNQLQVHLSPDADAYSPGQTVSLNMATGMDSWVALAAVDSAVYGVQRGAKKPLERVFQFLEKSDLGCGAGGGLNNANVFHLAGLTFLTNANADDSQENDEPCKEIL
T1 sequence (P01031 678-1676 limits assumed, form in doubt, chain 2 of 2): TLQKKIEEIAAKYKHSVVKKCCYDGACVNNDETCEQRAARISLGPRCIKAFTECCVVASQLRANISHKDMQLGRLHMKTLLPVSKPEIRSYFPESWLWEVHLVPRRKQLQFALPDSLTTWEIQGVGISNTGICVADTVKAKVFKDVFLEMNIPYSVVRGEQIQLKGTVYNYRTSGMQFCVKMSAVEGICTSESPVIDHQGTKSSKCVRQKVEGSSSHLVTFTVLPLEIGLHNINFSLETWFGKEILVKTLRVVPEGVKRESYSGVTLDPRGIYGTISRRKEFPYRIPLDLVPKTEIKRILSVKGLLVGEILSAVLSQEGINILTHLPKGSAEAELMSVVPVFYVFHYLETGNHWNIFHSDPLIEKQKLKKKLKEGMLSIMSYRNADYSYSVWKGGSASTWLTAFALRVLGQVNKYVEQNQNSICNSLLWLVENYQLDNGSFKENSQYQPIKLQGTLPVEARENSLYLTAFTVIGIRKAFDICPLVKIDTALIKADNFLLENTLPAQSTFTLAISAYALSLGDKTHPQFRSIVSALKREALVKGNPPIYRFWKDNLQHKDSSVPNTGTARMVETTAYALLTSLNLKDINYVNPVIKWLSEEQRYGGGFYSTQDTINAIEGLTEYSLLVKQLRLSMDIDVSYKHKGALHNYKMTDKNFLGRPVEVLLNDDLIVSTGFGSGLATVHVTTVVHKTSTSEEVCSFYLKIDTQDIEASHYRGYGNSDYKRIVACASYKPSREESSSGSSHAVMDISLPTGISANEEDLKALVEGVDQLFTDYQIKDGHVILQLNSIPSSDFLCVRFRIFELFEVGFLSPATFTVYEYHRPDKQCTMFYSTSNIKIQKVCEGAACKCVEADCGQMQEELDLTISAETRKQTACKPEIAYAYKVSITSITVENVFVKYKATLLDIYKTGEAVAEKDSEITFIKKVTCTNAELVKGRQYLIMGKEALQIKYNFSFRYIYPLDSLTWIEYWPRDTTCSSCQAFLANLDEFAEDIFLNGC

Sequence of rat complement C5 (in rat serum) (P08650 19-1681 limits assumed): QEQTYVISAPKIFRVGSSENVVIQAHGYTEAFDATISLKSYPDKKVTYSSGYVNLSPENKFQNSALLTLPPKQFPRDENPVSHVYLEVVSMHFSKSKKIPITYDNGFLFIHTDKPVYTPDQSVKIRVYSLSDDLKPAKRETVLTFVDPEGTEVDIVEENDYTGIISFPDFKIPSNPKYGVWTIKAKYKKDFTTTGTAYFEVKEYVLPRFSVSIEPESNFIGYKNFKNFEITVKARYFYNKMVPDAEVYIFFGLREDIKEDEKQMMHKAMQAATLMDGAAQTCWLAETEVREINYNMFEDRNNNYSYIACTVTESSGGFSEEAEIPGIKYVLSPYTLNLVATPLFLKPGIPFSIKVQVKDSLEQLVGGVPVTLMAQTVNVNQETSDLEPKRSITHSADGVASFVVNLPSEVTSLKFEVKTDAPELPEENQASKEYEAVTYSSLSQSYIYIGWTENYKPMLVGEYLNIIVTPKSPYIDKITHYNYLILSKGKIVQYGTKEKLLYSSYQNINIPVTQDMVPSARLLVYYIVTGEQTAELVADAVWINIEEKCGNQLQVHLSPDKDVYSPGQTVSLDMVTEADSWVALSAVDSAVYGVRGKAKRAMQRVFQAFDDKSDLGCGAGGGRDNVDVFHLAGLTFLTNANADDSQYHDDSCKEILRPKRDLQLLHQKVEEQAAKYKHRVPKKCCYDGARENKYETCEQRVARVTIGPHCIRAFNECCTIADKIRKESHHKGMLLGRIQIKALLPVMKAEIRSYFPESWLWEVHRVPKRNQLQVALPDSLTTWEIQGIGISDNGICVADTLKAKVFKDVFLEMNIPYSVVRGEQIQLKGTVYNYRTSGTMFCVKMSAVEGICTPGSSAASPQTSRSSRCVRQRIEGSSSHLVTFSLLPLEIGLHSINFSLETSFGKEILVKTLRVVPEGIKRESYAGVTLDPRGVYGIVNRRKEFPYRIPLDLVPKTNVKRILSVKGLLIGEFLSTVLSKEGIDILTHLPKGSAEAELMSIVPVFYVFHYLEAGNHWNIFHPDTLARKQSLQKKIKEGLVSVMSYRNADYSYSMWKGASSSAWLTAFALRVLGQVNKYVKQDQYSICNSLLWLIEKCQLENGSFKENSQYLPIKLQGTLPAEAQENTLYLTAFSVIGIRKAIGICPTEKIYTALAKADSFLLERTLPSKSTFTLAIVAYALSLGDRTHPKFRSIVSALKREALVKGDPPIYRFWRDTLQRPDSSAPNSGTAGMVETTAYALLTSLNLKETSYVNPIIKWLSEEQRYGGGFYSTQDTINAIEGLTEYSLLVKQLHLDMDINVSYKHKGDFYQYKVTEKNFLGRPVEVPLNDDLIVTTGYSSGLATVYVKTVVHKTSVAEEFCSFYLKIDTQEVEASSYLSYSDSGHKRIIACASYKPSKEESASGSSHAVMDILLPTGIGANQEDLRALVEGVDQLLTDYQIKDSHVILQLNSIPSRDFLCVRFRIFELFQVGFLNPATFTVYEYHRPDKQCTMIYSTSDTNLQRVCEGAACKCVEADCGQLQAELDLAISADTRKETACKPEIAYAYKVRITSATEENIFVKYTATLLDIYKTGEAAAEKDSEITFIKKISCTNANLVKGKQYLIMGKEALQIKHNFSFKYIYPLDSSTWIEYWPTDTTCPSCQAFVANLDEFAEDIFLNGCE
Sequence of human complement C5 (in human serum) (P01031 19-1676 limits assumed): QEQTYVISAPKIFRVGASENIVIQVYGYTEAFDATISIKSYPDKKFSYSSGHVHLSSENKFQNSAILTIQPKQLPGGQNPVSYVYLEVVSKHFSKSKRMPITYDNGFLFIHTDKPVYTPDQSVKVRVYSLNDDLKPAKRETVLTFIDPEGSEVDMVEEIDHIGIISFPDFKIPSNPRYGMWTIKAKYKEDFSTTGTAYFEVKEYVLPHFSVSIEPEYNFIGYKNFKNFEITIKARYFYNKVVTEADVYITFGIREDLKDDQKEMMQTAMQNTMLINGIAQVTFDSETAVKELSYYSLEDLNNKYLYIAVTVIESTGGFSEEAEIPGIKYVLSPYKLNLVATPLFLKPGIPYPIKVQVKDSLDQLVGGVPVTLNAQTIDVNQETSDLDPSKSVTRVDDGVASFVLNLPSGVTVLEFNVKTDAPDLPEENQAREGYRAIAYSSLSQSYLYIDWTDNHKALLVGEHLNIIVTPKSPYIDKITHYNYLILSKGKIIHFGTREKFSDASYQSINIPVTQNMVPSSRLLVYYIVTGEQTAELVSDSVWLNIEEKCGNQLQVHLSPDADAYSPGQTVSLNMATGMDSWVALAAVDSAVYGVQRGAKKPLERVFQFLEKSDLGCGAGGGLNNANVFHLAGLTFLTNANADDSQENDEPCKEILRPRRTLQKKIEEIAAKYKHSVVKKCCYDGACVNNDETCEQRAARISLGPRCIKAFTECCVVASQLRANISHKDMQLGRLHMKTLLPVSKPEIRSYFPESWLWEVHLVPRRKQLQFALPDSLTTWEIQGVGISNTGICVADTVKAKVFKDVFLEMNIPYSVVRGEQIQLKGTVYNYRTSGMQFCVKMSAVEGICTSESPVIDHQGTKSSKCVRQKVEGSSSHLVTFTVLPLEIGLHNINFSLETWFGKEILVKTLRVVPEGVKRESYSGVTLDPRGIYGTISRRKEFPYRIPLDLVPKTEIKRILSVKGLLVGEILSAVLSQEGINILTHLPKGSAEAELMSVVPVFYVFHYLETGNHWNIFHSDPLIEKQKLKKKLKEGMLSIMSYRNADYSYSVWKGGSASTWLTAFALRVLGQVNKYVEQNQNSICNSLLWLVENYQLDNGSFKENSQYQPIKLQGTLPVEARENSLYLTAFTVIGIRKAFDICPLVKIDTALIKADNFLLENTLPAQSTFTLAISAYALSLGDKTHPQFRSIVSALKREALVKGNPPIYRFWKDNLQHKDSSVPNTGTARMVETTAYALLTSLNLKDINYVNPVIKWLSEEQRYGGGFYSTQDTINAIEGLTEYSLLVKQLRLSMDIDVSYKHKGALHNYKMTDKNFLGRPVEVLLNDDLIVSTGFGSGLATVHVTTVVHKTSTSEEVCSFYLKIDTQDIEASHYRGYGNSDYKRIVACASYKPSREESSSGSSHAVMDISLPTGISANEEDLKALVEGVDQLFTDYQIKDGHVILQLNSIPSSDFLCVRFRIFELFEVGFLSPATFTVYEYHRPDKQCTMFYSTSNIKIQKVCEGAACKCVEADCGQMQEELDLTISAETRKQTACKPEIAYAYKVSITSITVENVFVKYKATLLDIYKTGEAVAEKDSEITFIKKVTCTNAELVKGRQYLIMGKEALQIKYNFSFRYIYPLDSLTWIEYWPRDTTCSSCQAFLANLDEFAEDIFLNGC

B1: EV576 protein, native, purified from salivary gland extracts of the soft tick Ornithodoros moubata (other)
chain: DSESDCTGSEPVDAFQAFSEGKEAYVLVRSTDPKARDCLKGEPAGEKQDNTLPVMMTFKNGTDWASTDWTFTLDGAKVTATLGNLTQNREVVYDSQSHHCHVDKVEKEVPDYEMWMLDAGGLEVEVECCRQKLEELASGRNQMYPHLKDC
~20 mg/L: IC50, binding of C5 and prevention of its cleavage by C5 convertase in serum [1] | IC50, binding of C5 and prevention of its cleavage by C5 convertase in serum [2] | IC50, binding of C5 and prevention of its cleavage by C5 convertase in serum [3] | IC50 (complement C5)
